This assay addresses PrgJ (S. enterica sv. Typhimurium (endogenous in SB905)) (UniProt P41785). Put plainly: cryo-EM structure.

Chain of PrgJ (P41785 whole entry): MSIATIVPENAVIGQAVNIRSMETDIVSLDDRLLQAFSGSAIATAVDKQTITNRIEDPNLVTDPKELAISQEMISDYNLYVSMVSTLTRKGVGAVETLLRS

Take “PrgJ (from UniProt P41785 1-101) (natural protein)”: the stoichiometry N (commonly the number of molecules, sites or subunits per partner or assembly) was 6.

Source of the values: PMC7943601.
